Experimental data as given in the nanobody polyreactivity screen of Harvey et al. (2022).

Assay: yeast display, Sf9 membrane polyspecificity reagent, FACS + sequencing; frameworks hold sequencing errors
How it was run: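 Genes from sorted yeast were amplified by colony PCR, read by MiSeq 2 × 250 sequencing and filtered on CDR length. These cells carried a synthetic nanobody library in Saccharomyces cerevisiae BJ5465 and were sorted by FACS into low and high (top ~1%) gates on anti-HA and streptavidin fluorescence. Polyreactivity is labelled according to the gate of origin.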

Row | Sequence | polyreactivity (PSR sort gate)
1 | QVQLVESGGGLVQAGGSLRLSCAASGSIIAGNVMGWYRQAPGKERELVAAISRRGGRTYYADSVKGRFTISRDNAKNTVYLQMNSLKPEDTAVYYCAARRDPVLGKSDFWGQGTQVTVSS | high polyreactivity
2 | QVQLVESGGGLVQAGGSLRLSCAASGSIIDRYAMGWYRQAPGKERELVAAISRSGGSTYYADSVKGRFTISRDNAKNTVYLQMKSLKPEDTAFYYCAAGGDSGDDWGQGTQVTVSS | low polyreactivity
3 | QVQLVESGGGLVQAGGSLRLSCAASGSIIDRYAMGWYRQAPGKERELVAAISYSGGRTYYADSVKGRFTISRDNAKNTVYLQMNSLKPEDTAVYYCAADSPYDEYDYWGQGTQVTVSS | high polyreactivity
4 | QVQLVESGGGLVQAGGSLRLSCAASGSIIFLYAMGWYRQAPGKERELVASISTSGTTITYYADSVKGRFTISRDNAQNTGYLQMNSLKPEDTAVYYCAAEAYGNRDYWGQGTQVTVSS | low polyreactivity
5 | QVQLVESGGGLVQAGGSLRLSCAASGSIIGFYVMGWYRQAPGKERELVAGISDSGGRTYYADSVKGRFTISRDNAKNTVYLQMNSLKPEDTAVYYCAAEAYKHGVWDYDYWGQGTQVTVSS | low polyreactivity
6 | QVQLVESGGGLVQAGGSLRLSCAASGSIIGPYAMGWYRQAHGKERELVAAITFSGGSTYYADSVKGRFTISRDNSKNTVYLQMNSLKPEDTAVYYCAAEYWYYTGYDYWGQGTQVTVSS | high polyreactivity
7 | QVQLVESGGGLVQAGGSLRLSCAASGSIIKRNAMGWYRQAPGKERELVASISSGDGSTNYADSVKGRFTISRDNAKNTVYLQMNSLKPEDTAVYYCNAPFWGYRTSFSYPVVQRFDYWGQGTQVTVSS | low polyreactivity
8 | QVQLVESGGGLVQAGGSLRLSCAASGSIIKRNDMGWYRQAPGKERELVASITWRGGRTYYADSVKGRFTISRDNAKNTVYLQMNSLTPEDTSVYYCATTQYPSHYDAYGYWGQGTQVTVSS | high polyreactivity
9 | QVQLVESGGGLVQAGGSLRLSCAASGSIIKSYAMGWYRQAPGKGRELVAAISSGGSTNYADSVKGRFTISRDNAKNTVYLQMNSLKPEDTAVYYCAARFRVDHRPYYYWGQGTQVTVSS | low polyreactivity
10 | QVQLVESGGGLVQAGGSLRLSCAASGSIIKVYAMGWYRQAPGKERELVAAITSDGSTYYADSVKGRFTISRDNAKNTVYLQLNSLKPVDTAVYYCAASVYYLYFHGKYDYWGQGTQVTVSS | low polyreactivity
11 | QVQLVESGGGLVQAGGSLRLSCAASGSIIKYYAMGWYRQAPGKERELVAAISWRGGRTYADSVKGRFTISRDNAKNTVYLQLNSLKPEDTAVYYCNARAPQGYGTHRSKYRWGPMGYWGQGTQVTVSS | high polyreactivity
12 | QVQLVESGGGLVQAGGSLRLSCAASGSIINFNAMGWYRQQPGKERELDARINQGGGSTYYADSVKGRFTISRDNAKNTVYLQMNSLKPEDTAVYYCAAVRYVLRSPARYGYWGQGTQVTVSS | low polyreactivity
13 | QVQLVESGGGLVQAGGSLRLSCAASGSIIPYNAMGWYRQAPGKERYLVATISSGGSTNYADSVKGRFTISRDNAKNTVYLQMNSLKPEDTAVYYCAADVIVFYYAPNYWGDIEYGYWGQGTQVTVSS | low polyreactivity
14 | QVQLVESGGGLVQAGGSLRLSCAASGSIIRGNAMGWYRQAPGKERELVAAISGSGGSTYYADSVKGRFTISRDNAKNTVYLQMNSLKPEDTAVYYCAARYVTSIYAYYYWGQGTQVTVSS | high polyreactivity
15 | QVQLVESGGGLVQAGGSLRLSCAASGSIIRGYTMGWYRQAPGKERELVADITQSTGSTYYADSVKGRFTISRDTAKNTVYFQMNSLKPEDTAVYYCAAVEGWYLFTSNYWGQGTQVNVSS | low polyreactivity
16 | QVQLVESGGGLVQAGGSLRLSCAASGSIIRTYAMGWYRQAPGKERQLVATITFGGVSTYNADSVKGRFTISRDNAKNTVYLQMNSLKPEDSAVYYCAADVYTRFWRVYRFDYWGQGTQVTVSS | low polyreactivity
17 | QVQLVESGGGLVQAGGSLRLSCAASGSIIRVNTMGWYRQAPGKERELVAGITSRGGSTYYADSVKGRFTISRDNAKNTVYLQMISLKPEDTAFYYCANRAYGTALYRGYGNWGQGTQVTVSS | low polyreactivity
18 | QVQLVESGGGLVQAGGSLRLSCAASGSIISGYAMGWYRQAPGKERELVASISSSGGRTYYAYSVKGRYTISRDNAKNTVYLPRNSLKPEDTAVYYCNVKSYTYGYLPYDYWGQGTQVTVSS | high polyreactivity
19 | QVQLVESGGGLVQAGGSLRLSCAASGSIISNYVMGWYRPAPGKERELVAAITRRGGRTYYADSVKGRFTISRDNAKNTVYLQMNSLKPEDTAVYYCAAERYPEAGSPYGTAEMDYWGQGTLVTVSS | high polyreactivity
20 | QVQLVESGGGLVQAGGSLRLSCAASGSIISSYTMGWYRQAPGKERELVAVITSGDSTNYADSVKGRFTISRDNAKNTVYLEMNSLKPEDTAVYYCNADYVKVFKLQFDYWGQGTQVTVSS | low polyreactivity
21 | QVQLVESGGGLVQAGGSLRLSCAASGSIITGYAMGWYRQAPVKERELVAGINSGTSTNYADSVKGRFTISRDNAKNTVSLQMNSLKPEDTAVYYCAKTAERRHYGVYRFDYWGQGTQVTVSS | low polyreactivity
22 | QVQLVESGGGLVQAGGSLRLSCAASGSIIVGYAMGWYRQAPGKERELVAAISWSGGRTYYADSVKGRFTISRDNAKNTVYLQMNSLKPEDTAVYYCATVTKGSLRYNYNYWGQGTQVTVSS | high polyreactivity

Row | Sequence | polyreactivity (PSR sort gate)
23 | QVQLVESGGGLVQAGGSLRLSCAASGSIIVLNAMGWYRQAPGKERELVAAISSDGITYYADSVKGRFTISRDNAKNTVYLQKNSLKPEDTAVYYCAAYRVDYSDAYYYWGQGTQVTVSS | low polyreactivity
24 | QVQLVESGGGLVQAGGSLRLSCAASGSIIVYYGMGWYRQAPGKERELVAAISSGGSTHYADSVKGRFTISRDNAKNSVYLQMNSVKPEDTAVYYCAADRFFWLRSYPRYYYWGQGTQVTVSS | low polyreactivity
25 | QVQLVESGGGLVQAGGSLRLSCAASGSIIWLYAMGWYRQAPGKERELVAAISSGGSTYYADSVKGRFTISRDNAKNTVYLQMNSLKPEDTAVYYCAADYWSQSDWWDLTEYEYWGQGTQVTVSS | high polyreactivity
26 | QVQLVESGGGLVQAGGSLRLSCAASGSIIYTNAMGWYRQAPGKERELVAAITGTTTTNYADSVKGRFTISRDNAKNTVYLQMNSLKPEDPAVYYCNADYDRSRVYYSVELYDYWGQGTQVTVSS | low polyreactivity
27 | QVQLVESGGGLVQAGGSLRLSCAASGSILASNAMGWYRQAPGKDRELVAAITTSGGSTYYADSVKGRFTISRHNAKNTVYLQMNSLKPEDTAVYYCNAEYWLGRWLRYGYWGQGTQVTVSS | high polyreactivity
28 | QVQLVESGGGLVQAGGSLRLSCAASGSILCLNAMGWYRQAPGKERELVADITRGGSTYYADSVKGRFTISRDNAKNTVYLQMNSLKPEDTAVNYCAADAYTGQIPYYYFEHYYWGQGTQVTVSS | high polyreactivity
29 | QVQLVESGGGLVQAGGSLRLSCAASGSILCTNAMGWYRQAPGKERELVAAITTSGASTYYADSVKGRFTISRANAKNSVYLPMNSLKPEDSAVYYCAAPSRYRYYWGNYWGQGTQVTVSS | high polyreactivity
30 | QVQLVESGGGLVQAGGSLRLSCAASGSILDHYAMGRYRQAPGKEREFVAAISIRGGSTYYADSVKGRFTISRDNEKNTVYLHMNSLKPEDTAVYYCNALSNYVYRRNDYGGQGTQVTVSS | low polyreactivity
31 | QVQLVESGGGLVQAGGSLRLSCAASGSILDVYAMGWYRQAPGKERELVATISWSGGDTYYADSVKGRFTISRDNAKNTVYLQMNSLKPEDTAVYYCNDVFSYYGYDYWGQGTQVTVSS | low polyreactivity
32 | QVQLVESGGGLVQAGGSLRLSCAASGSILDWNAMGWYRQAPGKVRELDAAITNGVSTHYADSVKGRFTISRDNAKNTVYFQMNSLKPEETAVYYCAKAFWWRPEWWLRSARGSWGQGTQVTVSS | low polyreactivity
33 | QVQLVESGGGLVQAGGSLRLSCAASGSILEPYAMGWYRQAPGKERELVAAISSSGGSTRYADSVKWRFTISRDNAKNTVYLQMNSLKPEDTAVYYCAARFRAKFNYWGQGTQVTVSS | high polyreactivity
34 | QVQLVESGGGLVQAGGSLRLSCAASGSILEVYAMGWYRQAPGKERELVAAISDGDSTYYADSVKGRFTISRDNAKNTVYLQMNSLKPEDTAVYYCAAEFVGTLWWYDYWGQGTQVTVSS | low polyreactivity
35 | QVQLVESGGGLVQAGGSLRLSCAASGSILFKNAMGWYRQAPGKERELVAAISTSGGRTYYADSVKGRFTISRDNAKNTVSLQMNSLKPEDTAVYYCAAVYPRQVSQVWRDDYWGQGTQVTVSS | high polyreactivity
36 | QVQLVESGGGLVQAGGSLRLSCAASGSILGANVMGWYRQAPGKERELVASISKSGGNTFYADSVKGRFTISRDNAKNTVYLQMNSLKPEDTAVYYCAKDVLGGQITDGVGNDYWGQGTQVTVSS | low polyreactivity
37 | QVQLVESGGGLVQAGGSLRLSCAASGSILGGNTMGGYRQAPGKERELVAAISRSGGSTYYADSVKGRLTISRDNAKNTVYLQMNSLKPEDTAVYYCNRKQAGHAQGYDYWGQGTQVTVSS | high polyreactivity
38 | QVQLVESGGGLVQAGGSLRLSCAASGSILGHYAMGWYRQAPGKERELVAAISSSGGSTYYADSVKGRFTISRDNAKNTVYLQMNSLKPEDTAVYYCAADRGRPFPRGTGYYYWGQGTQVTVSS | high polyreactivity
39 | QVQLVESGGGLVQAGGSLRLSCAASGSILGHYAMGWYRQAPGTERELVAAISRGGSTTYYADSVKGRFTISRDNAKNTVYFQMNSLKPEDTAVYYCAARSASKMDYWGQGTQVNVSS | high polyreactivity
40 | QVQLVESGGGLVQAGGSLRLSCAASGSILGINVMGWYRPAPGKERELVAAISRRGGSTYYADSVKGRFTISRDNAKNTVYLQMNSLKPEDTAVYYCAATRTARTMGYWGQGTQVTVSS | high polyreactivity
41 | QVQLVESGGGLVQAGGSLRLSCAASGSILGPYAMGWYRQAPGKERELVAAISQSGARTYYADSVKGRFTISRDNAKNTVYLQMNSLKPEDTAVYYCAAQSRKGGWSAYYYWGQGTQVTVSS | high polyreactivity
42 | QVQLVESGGGLVQAGGSLRLSCAASGSILGQNGMGWYRQAPWKERELVAGITWSGGSTYYADSVKGRFTISRDNAKNTVYLQMNSLKPEDTAVYYCARRGYYAPYYYWGQGTQVTVSS | high polyreactivity
43 | QVQLVESGGGLVQAGGSLRLSCAASGSILGQYTMGWYRQAPGKERELVAGISSGGSTNYADSVKGRFTISRDNAKNTVYLQMNSLKPEDTAVYYCNKDGAFHWVGSDPVYLFEYWGQGTQVTVSS | low polyreactivity
